From patent US20050085420A1, “Method of modulating apoptosis and compositions thereof” (priority 2003, published 2005)
Changes are numbered by the printed parent chain. Numbers in names are those of the source.

What was measured:
[1] = test system: MEFs; assay: G418 selection of mouse embryonic fibroblasts; assay type: cell-based; conditions: 0.3 mg/ml G418, 3 days
Experimental: vdac1 -/- and vdac2 -/- embryonic stem (ES) cells were described previously S. Wu, M. J. Sampson, W. K. Decker, W. J. Craigen, Biochim Biophys Acta 1452, 68-78. (1999). 129/SvEv derived ES cell clones with homozygous deletion of vdac2 alleles were microinjected into blastocysts from C57BL/6 female mice. Mouse embryonic fibroblasts derived from E13.5 day chimeric embryos were treated with 0.3 mg/ml G418 (GIBCO-BRL) at second passage for 5 days to select for vdac2 -/- cells. Normally, 100% of MEFs died at 3 days in the presence of 0.3 mg/ml G418. Deficiency of VDAC2 in cells following G418 selection was confirmed by an immunoblot developed with an anti-VDAC2 Ab.

[2] = biological target: T1, BAK (Mus musculus, UniProt O08734); assay: Co-precipitation of endogenous BAK with HA-tagged VDAC2; assay type: binding; conditions: wt MEF mitochondria, CHAPS, anti-HA immunoprecipitation
T1 construct: endogenous in cells; host or cells: wt MEFs transduced with HA-VDAC2 retrovirus; mitochondria solubilized in 1% CHAPS or 0.2% NP-40
T1 sequence (O08734 2-209 limits assumed): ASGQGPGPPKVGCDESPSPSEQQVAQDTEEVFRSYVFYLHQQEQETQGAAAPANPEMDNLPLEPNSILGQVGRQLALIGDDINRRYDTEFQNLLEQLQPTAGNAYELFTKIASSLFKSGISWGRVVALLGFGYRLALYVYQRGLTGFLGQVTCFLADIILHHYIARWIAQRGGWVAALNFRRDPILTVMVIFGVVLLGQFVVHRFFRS
T1 sequence (Q60930 1-295 partner): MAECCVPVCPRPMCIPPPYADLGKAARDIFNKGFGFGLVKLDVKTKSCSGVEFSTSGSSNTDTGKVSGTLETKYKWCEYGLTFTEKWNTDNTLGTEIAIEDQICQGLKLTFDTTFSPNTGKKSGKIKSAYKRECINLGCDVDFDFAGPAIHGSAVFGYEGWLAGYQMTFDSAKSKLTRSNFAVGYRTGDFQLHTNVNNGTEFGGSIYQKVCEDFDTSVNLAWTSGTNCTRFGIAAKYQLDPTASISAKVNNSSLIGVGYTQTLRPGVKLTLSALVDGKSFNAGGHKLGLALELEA
Experimental: (§1) FIG. 2E is a photograph depicting mitochondria isolated from wt MEFs (upper panel) or Bax, Bak doubly deficient MEFs (lower panel), which were transduced with retrovirus expressing N-terminal HA-tagged VDAC2, BAK or BAX and were solubilized in either 1% CHAPS or 0.2% NP-40 buffer, followed by immunoprecipitation with an anti-HA antibody. The immunoprecipitates were analyzed by an immunoblot developed with anti-HA-Biotin, anti-BAK, anti-BAX, or anti-VDAC2 Abs as indicated.
(§2) An HA-tagged BAK, but not HA-tagged BAX co-precipitated endogenous VDAC2 (FIG. 2E).

[3] = biological target: T2, BAX (Mus musculus, UniProt Q07813); assay: Co-precipitation of endogenous BAX with HA-tagged VDAC2; assay type: binding; conditions: wt MEF mitochondria, CHAPS, anti-HA immunoprecipitation
T2 construct: endogenous in cells; host or cells: wt MEFs transduced with HA-VDAC2 retrovirus; mitochondria solubilized in 1% CHAPS or 0.2% NP-40
T2 sequence (Q07813 whole entry): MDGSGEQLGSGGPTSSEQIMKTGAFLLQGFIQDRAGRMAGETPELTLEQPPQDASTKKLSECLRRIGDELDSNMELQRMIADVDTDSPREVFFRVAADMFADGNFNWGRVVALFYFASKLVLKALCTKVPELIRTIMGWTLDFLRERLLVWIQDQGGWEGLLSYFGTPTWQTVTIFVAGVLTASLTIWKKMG
Experimental: as §1, §2

[4] = biological target: T3, N-terminal HA-tagged VDAC2 (murine, UniProt Q60930 1-295); assay: anti-HA immunoprecipitation in 1% CHAPS or 0.2% NP40, anti-BIM immunoblot
T3 construct: also called HA-VDAC2; hemagglutinin (HA)-tagged version of VDAC2; not shown: N-terminal HA tag
T3 sequence (looked up): T1 sequence (Q60930 1-295 partner)
Excerpt: Mitochondria isolated from wild-type MEFs or vdac2 -/- mouse embryonic fibroblasts (MEFS) with retroviral transduction of N-terminal HA-tagged VDAC2 were solubilized in either 1% CHAPS or 0.2% NP40 buffer, followed by anti-HA immunoprecipitation.

[5] = biological target: T4, VDAC2 (Mus musculus, UniProt Q60930); assay: Anti-HA immunoprecipitation of HA-tagged VDAC2 with BH3-only molecules; assay type: binding; conditions: mitochondria, anti-HA immunoprecipitation, 1% CHAPS (or 0.2% NP40)
T4 construct: expressed in transfected cells; host or cells: vdac1 -/-, vdac3 -/- mouse fibroblasts; wt or vdac2 -/- MEFs; Bax, Bak doubly deficient MEFs (retrovirus pMIG)
T4 sequence (Q60930 1-295): T1 sequence (Q60930 1-295 partner)
Excerpt: Murine vdac1, vdac2, N-terminal HA-tagged vdac2, N-terminal-HA tagged Bax or Bak, as well as wild type and mutant Bak (mBH1, W122A, G123E, R124A; mBH3, L75E) were cloned into the retroviral expression vector MSCV-IRES-GFP (pMIG). PcDNA3-tBID (wt and mutants) was described previously M. C. Wei et al., Genes Dev 14, 2060-71. (2000). Generation of amphotropic retroviruses and retroviral infection were described previously E. H. Cheng et al., Mol Cell 8, 705-11. (2001). Retroviral expression of each indicated protein was confirmed by immunoblot. […]
The strength of association between BIM-EL and VDAC2 was compared to the strength of the association, if any, between BIM-EL and BAK or BAX. Mitochondria isolated from Bax, Bak doubly deficient MEFs transduced with retrovirus expressing N-terminal HA-tagged BAX, BAK, or VDAC2 were solubilized in 1% CHAPS or 0.2% NP-40 buffer, followed by anti-HA immunoprecipitation. The immunoprecipitates were analyzed by an immunoblot developed with anti-BIM. […] These findings indicate that BH3-only competition for VDAC2 frees BAK, which, in the absence of its specific inhibitor VDAC2, is prone to auto-activating homo-oligomerization. […]

[6] = biological target: T3, N-terminal HA-tagged VDAC2; assay: anti-HA immunoprecipitation in 1% CHAPS from Bax, Bak doubly deficient MEF mitochondria before or after etoposide, anti-PUMA immunoblot (FIG. 11B)
Experimental: For FIG. 11A, mitochondria isolated from vdac1 -/-, vdac3 -/- mouse fibroblasts with or without retroviral transduction of N-terminal HA-tagged VDAC2 were incubated with in vitro transcribed, translated PUMA protein at 30° C. for 30 min, followed by anti-HA immunoprecipitation in 1% CHAPS buffer. The immunoprecipitates were analyzed by an immunoblot developed with anti-PUMA. For FIG. 11B, mitochondria were isolated from Bax, Bak doubly deficient MEFs with or without retroviral transduction of N-terminal HA-tagged VDAC2 before or after etoposide treatment (10 μM) for 20 hours, followed by anti-HA immunoprecipitation in 1% CHAPS buffer. The immunoprecipitates were analyzed by an immunoblot developed with anti-PUMA (FIG. 11B, lower panel).

[7] = biological target: T5, VDAC2 (endogenous, or untagged murine vdac2 re-expressed by retrovirus) (murine, UniProt Q60930 1-295); assay: restatement of the co-immunoprecipitation result
T5 construct: In mitochondria or whole cells; also called Voltage-Dependent Anion Channel 2; protein X
T5 sequence (looked up): T1 sequence (Q60930 1-295 partner)

[8] = biological target: VDAC1 (endogenous) (mouse, UniProt Q60932-2 2-283, limits assumed); assay: DSS crosslinking of vdac2-deficient ES cells, anti-BAK immunoblot
Sequence of VDAC1 (endogenous) (Q60932 15-296 limits assumed): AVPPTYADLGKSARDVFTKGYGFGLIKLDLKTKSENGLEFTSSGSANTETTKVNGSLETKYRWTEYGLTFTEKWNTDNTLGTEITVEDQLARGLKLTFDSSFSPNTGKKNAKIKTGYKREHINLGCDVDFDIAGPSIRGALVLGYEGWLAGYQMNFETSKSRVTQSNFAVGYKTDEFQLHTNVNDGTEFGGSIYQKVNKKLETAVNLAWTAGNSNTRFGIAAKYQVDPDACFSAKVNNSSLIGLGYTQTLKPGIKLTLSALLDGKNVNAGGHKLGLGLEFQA

[9] = biological target: the molecule itself; assay: Superdex 200 gel filtration of mitochondrial lysates in 2% CHAPS, anti-BAK immunoblot
Experimental: The chromatographic step of Superdex 200 (HR 10/30, Amersham-Pharmacia) was performed on an automatic fast protein liquid chromatography (FPLC) station (Amersham-Pharmacia) at 4° C. The column was equilibrated with buffer containing 2% CHAPS, 300 mM NaCl, 0.2 mM DTT, and 25 mM Hepes, pH 7.5 and calibrated with thyroglobulin (669 kD, Amersham-Pharmacia), ferritin (440 kD, Amersham-Pharmacia), catalase (232 kD, Amersham-Pharmacia), aldolase (158 kD, Amersham-Pharmacia), bovine serum albumin (66 kD, Calbiochem), and cytochrome c (14 kD, Sigma). 200 μl of mitochondrial lysates (1 mg/ml protein in the same buffer as above) was loaded onto the column, eluted at a flow rate of 0.3 ml/minute. Fractions of 0.6 ml were collected, precipitated by trichloroacetic acid, and analyzed by an immunoblot (fractions 16-31) developed with an anti-BAK Ab.

[10] = biological target: T5, VDAC2 (endogenous, or untagged murine …); assay: DSS crosslinking of reconstituted Bax, Bak doubly-deficient MEFs, anti-BAK immunoblot
[11] = biological target: BCL-XL (in Bax, Bak doubly deficient MEFs) (mouse, UniProt Q64373-1 1-233); assay: anti-HA co-immunoprecipitation in 1% CHAPS
Sequence of BCL-XL (in Bax, Bak doubly deficient MEFs) (Q64373 whole entry): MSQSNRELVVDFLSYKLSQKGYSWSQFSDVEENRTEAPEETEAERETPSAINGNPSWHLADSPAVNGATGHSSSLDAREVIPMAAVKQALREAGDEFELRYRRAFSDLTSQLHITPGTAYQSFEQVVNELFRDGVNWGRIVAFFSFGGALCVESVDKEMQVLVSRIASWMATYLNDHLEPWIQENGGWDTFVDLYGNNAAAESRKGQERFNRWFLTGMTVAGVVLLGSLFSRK

**Q.** For `CN[C@@H]1[C@@H](O)[C@@H](O[C@@H]2[C@@H](O)[C@H](O[C@H]3O[C@H]([C@@H](C)O)[C@@H](O)[C@H](O)[C@H]3N)[C@@H](N)C[C@H]2N)OC[C@]1(C)O` [G418], which MEFs died [1] is on record?
**A.** 100%

B1: HA-tagged VDAC2: N-terminal HA-tagged murine VDAC2, retrovirally expressed (protein)
chain: T1 sequence (Q60930 1-295 partner)
modifications: left off: small tags and cut ends
notes: N-terminal HA-tagged murine VDAC2, retrovirally expressed
**Q.** What does the source list for B1?
**A.** co-precipitation of endogenous BAK [2]: efficiently co-precipitated; co-precipitation of endogenous BAX [3]: not

B2: BIM-EL (endogenous) (other, mouse, UniProt O54918-1 1-196, looked up)
chain: MAKQPSDVSSECDREGGQLQPAERPPQLRPGAPTSLQTEPQGNPDGEGDRCPHGSPQGPLAPPASPGPFATRSPLFIFVRRSSLLSRSSSGYFSFDTDRSPAPMSCDKSTQTPSPPCQAFNHYLSAMASIRQSQEEPEDLRPEIRIAQELRRIGDEFNETYTRRVFANDYREAEDHPQMVILQLLRFIFRLVWRRH
notes: also called BH3-only molecule BIM-EL
**Q.** Does B2 bind [4]?
**A.** binds

B3: PUMA (endogenous, induced by etoposide) (other, mouse, UniProt Q99ML1 1-193, looked up)
chain: MARARQEGSSPEPVEGLARDSPRPFPLGRLMPSAVSCSLCEPGLPAAPAAPALLPAAYLCAPTAPPAVTAALGGPRWPGGHRSRPRGPRPDGPQPSLSPAQQHLESPVPSAPEALAGGPTQAAPGVRVEEEEWAREIGAQLRRMADDLNAQYERRRQEEQHRHRPSPWRVMYNLFMGLLPLPRDPGAPEMEPN
notes: also called induced PUMA
**Q.** With B3 as the molecule, how does the “interaction with HA-tagged VDAC2 (co-immunoprecipitation)” value [5] read?
**A.** stable interaction

**Q.** Does B3 bind [6]?
**A.** binds

B4: BAK (endogenous, or wild type Bak reconstituted by retrovirus) (other, murine, UniProt O08734 2-209, looked up)
chain: T1 sequence (O08734 2-209 limits assumed)
notes: Integral mitochondrial membrane protein, tested in mitochondria or whole cells; also called endogenous BAK; wt Bak
**Q.** What does the source list for B4?
**A.** binding result [7]: binds; binding result [8]: no binding; binding result [9]: binds

B5: mutant Bak mBH3 (L75E) (other, murine, UniProt O08734 2-209, looked up)
chain: T1 sequence (O08734 2-209 limits assumed) with L75E
notes: also called BAK mutated within the BH3 domain (L75E)
**Q.** Does B5 bind [10]?
**A.** no binding

B6: N-terminal HA-tagged BAK (other, murine, UniProt O08734 1-209, looked up)
chain: MASGQGPGPPKVGCDESPSPSEQQVAQDTEEVFRSYVFYLHQQEQETQGAAAPANPEMDNLPLEPNSILGQVGRQLALIGDDINRRYDTEFQNLLEQLQPTAGNAYELFTKIASSLFKSGISWGRVVALLGFGYRLALYVYQRGLTGFLGQVTCFLADIILHHYIARWIAQRGGWVAALNFRRDPILTVMVIFGVVLLGQFVVHRFFRS
notes: also called HA-BAK; not shown: N-terminal HA tag
**Q.** Does B6 bind [11]?
**A.** no binding
